According to the RNAGym collection of RNA variant scans (doi:10.7554/elife.80360):

B1: HDV Ribozyme (parent)
chain: GGCCGGCAUGGUCCCAGCCUCCUCGCUGGCGCCGGCUGGGCAACAUUCCGAGGGGACCGUCCCCUCGGUAAUGGCGAAUGGGACCCA

Variants of: B1
Experiment: self-cleavage, relative activity (ratio to wild type); higher = more cleavage; co-transcriptional

Going from A56G A83C to A56G C64A, the self-cleavage rises from 0.0639 to 0.764.

First: A56G C64U
Second: A56C C57U
The self-cleavage of the first is lower: 0.563 for the first, 1.08 for the second.

First: G55C C66A
Second: G55C C84U
The self-cleavage of the first is higher: 0.87 for the first, 0.817 for the second.

Compared with G55C C84G, A56G U69C is higher in self-cleavage: 0.712 for the first, 1.32 for the second.

Compared with A56G U69A, A56C C84A is higher in self-cleavage: 0.906 for the first, 0.95 for the second.

Going from A56C C84U to G55U A87U, the self-cleavage rises from 0.718 to 1.1.

Going from G55C A70U to G55C A70C, the self-cleavage falls from 0.96 to 0.932.

First: C57A G81C
Second: C57A G81U
The self-cleavage of the first is lower: 0.181 for the first, 0.397 for the second.

First: C57A G81A
Second: A56G G74A
The self-cleavage of the first is lower: 0.339 for the first, 0.45 for the second.

Going from C57A C86A to C57A C86U, the self-cleavage rises from 0.986 to 1.06.

Compared with A56G A87C, G55U U69C is higher in self-cleavage: 0.993 for the first, 1 for the second.

First: G55U U69A
Second: G55U U69G
The self-cleavage of the first is lower: 0.869 for the first, 0.933 for the second.

Compared with C57G A87C, C57G A87G is lower in self-cleavage: 0.98 for the first, 0.86 for the second.

Compared with C57A C66A, A56C G76U is higher in self-cleavage: 1.18 for the first, 1.19 for the second.

Compared with A56G G59A, C57A C61U is higher in self-cleavage: 0.849 for the first, 1.14 for the second.

Compared with G55A A83U, A56C G80A is lower in self-cleavage: 0.415 for the first, 0.292 for the second.

Going from A56C G80C to C57G C66G, the self-cleavage rises from 0.189 to 1.08.

Compared with G55C C64U, G55C C64G is lower in self-cleavage: 1.12 for the first, 0.953 for the second.

Compared with G55U C61U, G55A C86A is higher in self-cleavage: 0.859 for the first, 0.978 for the second.

Compared with G55A C86G, G55A C84A is higher in self-cleavage: 0.818 for the first, 0.992 for the second.

First: G55A C84G
Second: C57G A83C
The self-cleavage of the first is higher: 0.635 for the first, 0.554 for the second.

First: C57G A83U
Second: A56U U69A
The self-cleavage of the first is lower: 0.587 for the first, 1.04 for the second.

Going from A56U G82C to A56U A77G, the self-cleavage rises from 0.172 to 1.01.

First: G55U C75G
Second: G55U C75U
The self-cleavage of the first is lower: 0.0707 for the first, 0.168 for the second.

Compared with G55U C66A, G55U C66U is lower in self-cleavage: 0.986 for the first, 0.973 for the second.

Compared with C57A C63A, C57A C63U is lower in self-cleavage: 1.25 for the first, 1.12 for the second.

Going from C57A C63G to G55A A77U, the self-cleavage falls from 0.945 to 0.694.

First: G55A A77G
Second: C57A A83G
The self-cleavage of the first is higher: 0.991 for the first, 0.688 for the second.

Compared with A56C U65C, C57A A70C is lower in self-cleavage: 1.33 for the first, 0.773 for the second.

First: C57A A70G
Second: G55U G82U
The self-cleavage of the first is higher: 0.852 for the first, 0.426 for the second.

Compared with G55U G82C, A56U G67U is higher in self-cleavage: 0.233 for the first, 0.988 for the second.

First: C57A A87G
Second: A56C U72C
The self-cleavage of the first is higher: 1.07 for the first, 0.539 for the second.

Compared with G54U U72G, G54U U72C is lower in self-cleavage: 0.919 for the first, 0.554 for the second.

First: G54U U72A
Second: G55U G68C
The self-cleavage of the first is lower: 0.614 for the first, 0.744 for the second.

First: G55U G68U
Second: A56U A87U
The self-cleavage of the first is lower: 1 for the first, 1.08 for the second.

Going from A56U A87C to A56C A83C, the self-cleavage falls from 0.963 to 0.494.

Compared with A56C A83U, G55C C63U is higher in self-cleavage: 0.192 for the first, 0.808 for the second.

Compared with G55U A56G, A56G A78G is lower in self-cleavage: 0.912 for the first, 0.615 for the second.

First: G55C A87G
Second: G55C A87U
The self-cleavage of the first is lower: 0.953 for the first, 1.02 for the second.

Going from G55C A87C to C57G A77U, the self-cleavage falls from 1.11 to 0.923.

Compared with C57G A77G, A56G A70U is higher in self-cleavage: 1.05 for the first, 1.1 for the second.

First: G55A G68U
Second: A56C C58A
The self-cleavage of the first is higher: 0.965 for the first, 0.923 for the second.

Going from A56G C85U to A56G C85A, the self-cleavage falls from 1.02 to 0.95.

Compared with A56G C85G, A56G G68A is higher in self-cleavage: 0.831 for the first, 0.96 for the second.

Going from G55U A83G to G55U A83U, the self-cleavage falls from 0.842 to 0.409.

Going from G55C C75G to C57A G67C, the self-cleavage rises from 0.208 to 1.05.

Compared with C57A G68U, C57A G68A is lower in self-cleavage: 1.14 for the first, 0.819 for the second.

First: G55A G67U
Second: G55A G67C
The self-cleavage of the first is higher: 1.12 for the first, 0.942 for the second.

Going from A56G C62U to A56G C62G, the self-cleavage falls from 0.912 to 0.731.

First: A56G C62A
Second: A56U C84U
The self-cleavage of the first is lower: 0.467 for the first, 0.808 for the second.

First: A56C C64A
Second: A56C C64U
The self-cleavage of the first is lower: 0.911 for the first, 1.12 for the second.

Going from A56C U79G to A56C U79A, the self-cleavage falls from 0.997 to 0.554.

Going from C57A C64G to C57A C64A, the self-cleavage rises from 0.658 to 0.857.

Going from G55C C62A to C57A G74A, the self-cleavage falls from 1.04 to 0.597.

Compared with C57A U79C, A56C U69C is higher in self-cleavage: 0.429 for the first, 1.09 for the second.

Going from A56C U69A to A56C U69G, the self-cleavage rises from 0.776 to 0.987.

Compared with G55A C58A, G55A C58U is higher in self-cleavage: 0.978 for the first, 1.07 for the second.

Going from A56C G73C to G55U C64U, the self-cleavage rises from 0.536 to 1.05.

Going from A56U G59C to A56C A71G, the self-cleavage falls from 1.01 to 0.98.

Compared with G55A U69G, G55A U69C is lower in self-cleavage: 0.942 for the first, 0.918 for the second.

First: G55A C57A
Second: G55A C57G
The self-cleavage of the first is lower: 0.927 for the first, 1.07 for the second.

Going from A56C G59U to A56C G59A, the self-cleavage rises from 0.848 to 1.05.

Compared with G55C G67C, G55C G67U is lower in self-cleavage: 1.06 for the first, 0.967 for the second.

Compared with A56U U65A, A56C A78U is lower in self-cleavage: 1 for the first, 0.499 for the second.

First: A56C A78C
Second: G55U C85G
The self-cleavage of the first is lower: 0.111 for the first, 0.927 for the second.

Going from G55U C85A to G55U C85U, the self-cleavage falls from 1.09 to 0.92.

Compared with A56U C58U, A56U G68U is higher in self-cleavage: 0.985 for the first, 1.01 for the second.

Compared with A56U G68A, C57G A71G is higher in self-cleavage: 0.819 for the first, 1.08 for the second.

Compared with C57G A71U, G54U U79G is lower in self-cleavage: 0.91 for the first, 0.266 for the second.

First: G55C G76C
Second: A56U U60G
The self-cleavage of the first is lower: 0.943 for the first, 1.07 for the second.

Compared with A56U U60A, G55C U69C is lower in self-cleavage: 1.13 for the first, 1 for the second.

Compared with G55C U69G, A56C A77U is lower in self-cleavage: 0.984 for the first, 0.437 for the second.

Compared with C57A G82C, C57A G82A is higher in self-cleavage: 0.298 for the first, 0.554 for the second.

Compared with A56C A87C, C57A C75U is lower in self-cleavage: 1.04 for the first, 0.0978 for the second.

Going from C57A C75A to G55U A70U, the self-cleavage rises from 0.277 to 1.02.

Going from G54U U65C to G54U U65G, the self-cleavage falls from 0.969 to 0.782.

Compared with A56U A71C, A56G C75A is lower in self-cleavage: 0.966 for the first, 0 for the second.

Going from A56G C75G to G55U C58U, the self-cleavage rises from 0.175 to 1.05.

Compared with A56U A70U, C57A A71C is lower in self-cleavage: 1.09 for the first, 0.866 for the second.

Compared with G54U G74U, A56C C62U is higher in self-cleavage: 0.421 for the first, 1.02 for the second.

First: A56C C62G
Second: G54U G81A
The self-cleavage of the first is higher: 0.458 for the first, 0.306 for the second.

Going from G54U G81U to G54U G81C, the self-cleavage falls from 0.349 to 0.299.

Going from C57A A77G to A56U G81A, the self-cleavage falls from 1.17 to 0.492.

With G55U G59A the self-cleavage was 1.14.
